This note sets out measurements from patent US20200079848A1 (Five Prime, published 2020).

“And” between values parts separate entries of the source, which are not always exact repeats. Identical values can stand only once.

The target of assay [1] is T1, hILT4-His-Avi tag (human, UniProt Q8N423 22-459).
T1 construct: also called monomeric human ILT4; extracellular region of hILT4 linked to a His-Avi tag
Nature of the assay: SPR Biacore T200, 37 C; antibody captured on protein A/G chip, monomeric hILT4 as analyte; kinetic fit. As to the method: (§1) The binding kinetics of the parent and germline reversion mutant anti-hILT4 antibodies (in the context of IgG1.3) were measured via Surface Plasmon Resonance (SPR) using a Biacore® T200 instrument. The assay temperature was 37° C. and the running buffer was PBS pH 7.4 supplemented with 0.05% Tween-20. Allanti-hILT4 antibodies were captured on a CM4 chip with pre-immobilized protein A/G (Pierce Thermo Scientific catalog number 21186). […] Monomeric human ILT4 was injected as analyte. […] The hILT4 used in this experiment, comprising the extracellular region of hILT4 linked to a His-Avi tag, consists of the following amino acid sequence: […]

Assay [2] has as its target T1, hILT4-His-Avi tag. Nature of the assay: SPR ProteOn XPR36, 37 C; antibody amine-coupled to GLC chip, ILT4 ECD-His-Avi as analyte; kinetic titration. As to the method: The antibody was amine-coupled to a GLC sensor chip in a Proteon XPR36 instrument (BioRad). […] All data were double-referenced, exported, and analyzed with BIAevaluation Software 4.1.1 using the kinetic titration model described by Karlsson et al (Karlsson et al. (2005) Analytical Biochem. 349:136). The running buffer consisted of 10 mM HEPES pH 7.4, 150 mM NaCl and 0.05% Tween-20. The assay temperature was 37° C.

The target in assay [3] is T2, human ILT4 (hILT4) expressed on cells (human, UniProt Q8N423 22-597).
T2 construct: hILT4 on transfected CHO or 293T cells, or native on human monocytes and macrophages; also called LILRB2
Nature of the assay: antibody titration flow cytometry binding assay on transfected cells, nonlinear regression.

For assay [4], the target named is T3, human LILRA5 (human, UniProt A6NI73 42-299).
T3 construct: whole, on cells; also called hLILRA5
The assay is described as above.

Assay [5] addresses T2, human ILT4 (hILT4) expressed on cells. Nature of the assay: flow cytometry on hILT4-transfected CHO cells, PE anti-human IgG secondary, GMFI (PE); EC50 from the table below the graph; the table has no unit, the concentration axis is in ug/mL.
The target is the same in assay [6]. Nature of the assay: flow cytometry on human monocytes of a healthy donor, directly labelled antibody, GMFI; EC50 from the table below the graph; the table has no unit, the concentration axis is in ug/mL. An excerpt: In FIG. 18B, monocytes selected from a normal healthy donor's peripheral blood were stained with individual anti-ILT4 antibodies conjugated to […].

Assay [7] has as its target T1, hILT4-His-Avi tag. Nature of the assay: SPR Biacore T200, 37 C; antibody captured by anti-human Fc on CM4 chip, hILT4-His-Avi as analyte; 1:1 Langmuir fit. As to the method: The running buffer was 10 mM HEPES pH 7.4 supplemented with 0.05% Tween-20 and 1 g/L BSA. All anti-ILT4 antibodies were captured on a CM4 chip with pre-immobilized anti-human Fc capture antibody from Southern Biotech (catalog number 2081-01). […] All data were double-referenced and fitted to a 1:1 Langmuir model with mass transport using Biacore T200 Evaluation Software version 3.1.

The next assay addresses T4, human ILT3 (human, UniProt Q8NHJ6 22-448).
T4 construct: whole, on cells; also called hILT3
Nature of the assay: flow cytometry, 293T transfectants, antibody 20 µg/ml; stacked histograms, control: parental cells. The procedure:
(§2) Individual ILT family members were overexpressed in 293T cells. Each transfectant was stained with 20 μg/ml of anti-ILT4 antibodies followed by 1 μg/ml of anti-human IgG secondary mAb. Binding of the antibodies to each transfectant was measured by flow cytometry.

A further assay concerns the target T5, human ILT5 (human, UniProt O75022 24-631).
T5 construct: whole, on cells; also called hILT5; LILRB3
Described as above. As to the method: as §2

A further assay addresses T6, human LIR8 (human, UniProt O75023 24-590).
T6 construct: whole, on cells; also called hLIR8
The assay is described as above. As to the method: as §2

In a further assay the target is T7, human LILRA1 (human, UniProt O75019 17-489).
T7 construct: whole, on cells; also called hLILRA1; LIRA1
The assay is described as above. As to the method: as §2

The next assay has as its target T8, human LILRA2 (human, UniProt Q8N149 24-483).
T8 construct: whole, on cells; also called hLILRA2
The assay is described as above. As to the method: as §2

The target in another assay is T9, human LILRA6 (human, UniProt Q6PI73 24-481).
T9 construct: whole, on cells; also called hLILRA6
The assay is described as above. As to the method: as §2

For the next assay, the target named is T10, human LILRA3 (human, UniProt Q8N6C8 24-439).
T10 construct: whole, on cells; also called hLILRA3; LIRA3
The description is as above. As to the method:
as §2

The next assay concerns the target T11, human ILT2 (human, UniProt Q8NHL6 24-650).
T11 construct: whole, on cells; also called hILT2
The assay is described as above. The procedure:
as §2

For the next assay, the target named is T12, human LILRA4 (human, UniProt P59901 24-499).
T12 construct: whole, on cells; also called hLILRA4
Described as above. The procedure: as §2

Assay [8] has as its target T13, rhILT4-Fc (human, UniProt Q8N423-1 22-461).
T13 construct: also called rhILT4-Fc fusion protein with a murine Fc tail; not shown: murine Fc tail
Nature of the assay: flow cytometry blocking assay: antibody titrated (12 points) with rhILT4-Fc fixed at 30 µg/ml; rhILT4-Fc bound to HLA-A overexpressing CHO cells read as % Positive; blocked ligand: HLA-A; the IC50 table has no unit, the concentration axis is in ug/mL.

The target of assay [9] is T2, human ILT4 (hILT4) expressed on cells. Nature of the assay: flow cytometry cross-blocking on hILT4 CHO cells: unlabelled antibody titrated from 40 µg/mL, then PE-21D9.IgG1.1f at 1.5 µg/mL; competitor: PE-21D9; GMFI (PE) falls from about 595 to about 60; the table calls the value EC50 and has no unit, the concentration axis is in µg/mL. From the text:
(§3) After washing, the samples were acquired on a FACSCanto™ cytometer (BD Bioscience, San Jose) and analyzed with Flowjo™ software (Tree Star, Inc, Ashland, Oreg.).

The target is the same in assay [10]. Nature of the assay: flow cytometry cross-blocking on hILT4 CHO cells: unlabelled antibody titrated from 40 µg/mL, then PE-2H2.IgG1.1f at 1.5 µg/mL; competitor: PE-2H2; GMFI (PE) falls from about 310 to about 45; the table calls the value EC50 and has no unit, the concentration axis is in µg/mL.
Description: as §3

The target in assay [11] is T3, human LILRA5. Nature of the assay: flow cytometry, 293T transfectants, antibody 20 µg/ml; stacked histograms, control: parental cells. The procedure: as §2
The target of assay [12] is T13, rhILT4-Fc. Nature of the assay: flow cytometry blocking assay: antibody titrated (12 points) with rhILT4-Fc fixed at 30 µg/ml; rhILT4-Fc bound to HLA-B overexpressing CHO cells read as % Positive; blocked ligand: HLA-B; the IC50 table has no unit, the concentration axis is in ug/mL.
The target in assay [13] is T1, hILT4-His-Avi tag. Nature of the assay: SPR Biacore T200, 37 C; antibody captured on protein A/G chip, monomeric hILT4 as analyte; steady state fit. As to the method:
as §1

T2 sequence (Q8N423 other isoform, or with tags, fused parts or gaps): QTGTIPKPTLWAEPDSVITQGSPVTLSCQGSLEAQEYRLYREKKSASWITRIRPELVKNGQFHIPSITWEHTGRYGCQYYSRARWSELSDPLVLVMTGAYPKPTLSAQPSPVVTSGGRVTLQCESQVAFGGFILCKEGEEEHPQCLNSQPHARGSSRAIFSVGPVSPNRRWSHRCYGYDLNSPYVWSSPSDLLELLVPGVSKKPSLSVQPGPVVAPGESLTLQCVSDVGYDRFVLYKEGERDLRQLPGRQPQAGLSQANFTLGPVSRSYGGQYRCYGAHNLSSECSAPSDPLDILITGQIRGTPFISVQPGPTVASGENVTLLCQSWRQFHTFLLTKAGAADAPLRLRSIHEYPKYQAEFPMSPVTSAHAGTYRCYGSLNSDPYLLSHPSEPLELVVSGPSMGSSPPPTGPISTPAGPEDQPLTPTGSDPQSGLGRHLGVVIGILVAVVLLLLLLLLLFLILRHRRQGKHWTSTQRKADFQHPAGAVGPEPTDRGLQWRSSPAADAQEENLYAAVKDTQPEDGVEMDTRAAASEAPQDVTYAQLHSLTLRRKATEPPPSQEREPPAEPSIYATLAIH
T1 sequence (Q8N423 other isoform, or with tags, fused parts or gaps): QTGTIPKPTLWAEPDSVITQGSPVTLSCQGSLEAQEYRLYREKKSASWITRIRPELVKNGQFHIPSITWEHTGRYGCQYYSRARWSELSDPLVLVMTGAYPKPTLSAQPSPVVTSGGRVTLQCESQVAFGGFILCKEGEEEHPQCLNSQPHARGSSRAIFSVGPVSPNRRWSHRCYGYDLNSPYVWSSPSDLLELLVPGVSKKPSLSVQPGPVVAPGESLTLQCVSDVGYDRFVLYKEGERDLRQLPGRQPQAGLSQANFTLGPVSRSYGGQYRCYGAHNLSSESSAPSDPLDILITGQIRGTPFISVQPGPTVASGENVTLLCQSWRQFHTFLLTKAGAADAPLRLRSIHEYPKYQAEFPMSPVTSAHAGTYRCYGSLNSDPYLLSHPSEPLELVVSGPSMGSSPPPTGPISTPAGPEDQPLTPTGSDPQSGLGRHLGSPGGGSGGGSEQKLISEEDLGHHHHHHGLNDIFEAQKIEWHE
T12 sequence (P59901 24-499): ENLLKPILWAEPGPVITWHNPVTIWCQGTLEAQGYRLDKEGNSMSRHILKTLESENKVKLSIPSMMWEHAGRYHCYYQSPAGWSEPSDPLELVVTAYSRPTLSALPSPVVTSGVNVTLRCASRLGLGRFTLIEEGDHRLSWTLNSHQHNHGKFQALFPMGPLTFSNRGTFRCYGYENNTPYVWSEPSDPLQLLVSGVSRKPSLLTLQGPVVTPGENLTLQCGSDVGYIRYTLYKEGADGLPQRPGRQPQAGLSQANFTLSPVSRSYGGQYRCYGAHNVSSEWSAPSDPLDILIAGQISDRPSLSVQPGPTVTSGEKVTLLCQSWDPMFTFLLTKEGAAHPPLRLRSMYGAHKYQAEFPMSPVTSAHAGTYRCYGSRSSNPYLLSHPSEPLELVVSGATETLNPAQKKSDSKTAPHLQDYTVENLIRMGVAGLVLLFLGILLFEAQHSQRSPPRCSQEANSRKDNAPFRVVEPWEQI
T13 sequence (Q8N423 other isoform, or with tags, fused parts or gaps): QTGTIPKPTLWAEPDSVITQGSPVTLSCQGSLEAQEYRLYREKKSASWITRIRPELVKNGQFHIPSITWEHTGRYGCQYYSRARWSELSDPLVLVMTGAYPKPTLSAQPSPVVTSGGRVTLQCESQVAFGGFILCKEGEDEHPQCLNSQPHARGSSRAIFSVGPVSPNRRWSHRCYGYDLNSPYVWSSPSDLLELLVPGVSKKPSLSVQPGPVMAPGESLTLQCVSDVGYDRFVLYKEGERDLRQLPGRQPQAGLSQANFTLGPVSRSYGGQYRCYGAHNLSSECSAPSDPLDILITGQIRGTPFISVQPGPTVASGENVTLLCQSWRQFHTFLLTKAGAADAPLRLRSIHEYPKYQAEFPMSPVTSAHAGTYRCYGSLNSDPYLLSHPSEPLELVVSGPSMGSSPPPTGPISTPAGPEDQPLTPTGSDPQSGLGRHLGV
T10 sequence (Q8N6C8 24-439): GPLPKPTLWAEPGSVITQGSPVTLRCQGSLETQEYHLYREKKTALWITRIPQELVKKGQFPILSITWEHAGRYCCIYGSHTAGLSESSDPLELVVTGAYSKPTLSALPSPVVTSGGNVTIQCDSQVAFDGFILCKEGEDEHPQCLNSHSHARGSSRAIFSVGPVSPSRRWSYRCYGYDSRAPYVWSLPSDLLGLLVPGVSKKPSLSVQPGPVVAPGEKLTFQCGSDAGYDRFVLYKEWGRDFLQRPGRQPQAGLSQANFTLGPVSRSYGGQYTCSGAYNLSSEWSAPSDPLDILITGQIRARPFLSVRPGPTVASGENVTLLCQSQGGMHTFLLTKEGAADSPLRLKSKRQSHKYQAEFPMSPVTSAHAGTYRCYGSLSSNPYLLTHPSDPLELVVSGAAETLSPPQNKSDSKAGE
T9 sequence (Q6PI73 24-481): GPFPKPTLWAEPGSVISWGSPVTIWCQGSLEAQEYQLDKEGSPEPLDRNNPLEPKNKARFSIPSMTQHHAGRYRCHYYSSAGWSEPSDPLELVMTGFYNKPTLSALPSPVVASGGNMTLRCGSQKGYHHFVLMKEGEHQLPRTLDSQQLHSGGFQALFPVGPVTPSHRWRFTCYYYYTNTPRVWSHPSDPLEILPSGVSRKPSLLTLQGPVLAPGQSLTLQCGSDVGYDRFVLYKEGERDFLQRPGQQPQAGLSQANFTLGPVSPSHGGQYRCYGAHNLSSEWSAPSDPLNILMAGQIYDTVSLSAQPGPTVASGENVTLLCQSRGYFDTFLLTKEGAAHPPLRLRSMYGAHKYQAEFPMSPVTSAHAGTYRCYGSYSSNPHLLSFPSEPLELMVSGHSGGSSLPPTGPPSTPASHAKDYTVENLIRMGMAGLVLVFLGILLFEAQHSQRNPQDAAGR
T8 sequence (Q8N149 24-483): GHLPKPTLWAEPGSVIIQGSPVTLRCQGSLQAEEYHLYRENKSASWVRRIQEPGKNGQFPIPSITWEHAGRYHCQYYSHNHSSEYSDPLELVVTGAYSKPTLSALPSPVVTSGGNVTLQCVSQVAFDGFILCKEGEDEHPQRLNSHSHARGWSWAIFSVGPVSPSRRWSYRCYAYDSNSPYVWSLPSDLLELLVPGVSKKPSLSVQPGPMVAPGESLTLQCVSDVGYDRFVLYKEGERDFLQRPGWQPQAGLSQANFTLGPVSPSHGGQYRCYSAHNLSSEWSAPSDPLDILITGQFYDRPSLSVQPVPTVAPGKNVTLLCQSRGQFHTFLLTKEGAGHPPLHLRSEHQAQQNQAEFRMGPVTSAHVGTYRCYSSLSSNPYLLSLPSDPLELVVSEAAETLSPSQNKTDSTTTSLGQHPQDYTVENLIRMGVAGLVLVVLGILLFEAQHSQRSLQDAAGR
T6 sequence (O75023 24-590): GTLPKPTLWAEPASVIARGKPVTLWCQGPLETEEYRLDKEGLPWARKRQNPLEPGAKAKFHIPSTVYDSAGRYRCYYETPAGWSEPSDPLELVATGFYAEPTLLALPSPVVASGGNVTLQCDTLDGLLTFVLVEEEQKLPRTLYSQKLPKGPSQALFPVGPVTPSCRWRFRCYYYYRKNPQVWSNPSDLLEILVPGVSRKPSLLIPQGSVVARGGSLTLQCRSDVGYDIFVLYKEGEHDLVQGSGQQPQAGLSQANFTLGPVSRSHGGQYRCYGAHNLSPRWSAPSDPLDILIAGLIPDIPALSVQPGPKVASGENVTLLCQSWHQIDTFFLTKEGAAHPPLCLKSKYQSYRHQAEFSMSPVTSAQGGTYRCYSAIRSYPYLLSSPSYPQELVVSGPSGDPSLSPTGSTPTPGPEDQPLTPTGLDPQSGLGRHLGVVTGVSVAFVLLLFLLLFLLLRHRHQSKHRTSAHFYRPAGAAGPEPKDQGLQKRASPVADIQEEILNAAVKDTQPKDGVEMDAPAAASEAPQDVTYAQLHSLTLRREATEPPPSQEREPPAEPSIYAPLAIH
T7 sequence (O75019 17-489): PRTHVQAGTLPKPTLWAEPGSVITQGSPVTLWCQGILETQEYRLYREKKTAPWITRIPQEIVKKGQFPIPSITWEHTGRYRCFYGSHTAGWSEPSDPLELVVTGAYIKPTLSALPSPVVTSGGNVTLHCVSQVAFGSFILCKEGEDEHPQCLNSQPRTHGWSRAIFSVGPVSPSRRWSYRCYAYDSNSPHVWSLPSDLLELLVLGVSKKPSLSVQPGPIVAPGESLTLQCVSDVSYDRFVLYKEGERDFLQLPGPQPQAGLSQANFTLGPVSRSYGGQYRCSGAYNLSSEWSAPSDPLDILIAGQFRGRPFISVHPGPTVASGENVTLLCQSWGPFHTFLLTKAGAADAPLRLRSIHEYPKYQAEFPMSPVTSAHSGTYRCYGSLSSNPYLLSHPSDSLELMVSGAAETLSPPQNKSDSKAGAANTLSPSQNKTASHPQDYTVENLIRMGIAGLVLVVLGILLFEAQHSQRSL
T11 sequence (Q8NHL6 24-650): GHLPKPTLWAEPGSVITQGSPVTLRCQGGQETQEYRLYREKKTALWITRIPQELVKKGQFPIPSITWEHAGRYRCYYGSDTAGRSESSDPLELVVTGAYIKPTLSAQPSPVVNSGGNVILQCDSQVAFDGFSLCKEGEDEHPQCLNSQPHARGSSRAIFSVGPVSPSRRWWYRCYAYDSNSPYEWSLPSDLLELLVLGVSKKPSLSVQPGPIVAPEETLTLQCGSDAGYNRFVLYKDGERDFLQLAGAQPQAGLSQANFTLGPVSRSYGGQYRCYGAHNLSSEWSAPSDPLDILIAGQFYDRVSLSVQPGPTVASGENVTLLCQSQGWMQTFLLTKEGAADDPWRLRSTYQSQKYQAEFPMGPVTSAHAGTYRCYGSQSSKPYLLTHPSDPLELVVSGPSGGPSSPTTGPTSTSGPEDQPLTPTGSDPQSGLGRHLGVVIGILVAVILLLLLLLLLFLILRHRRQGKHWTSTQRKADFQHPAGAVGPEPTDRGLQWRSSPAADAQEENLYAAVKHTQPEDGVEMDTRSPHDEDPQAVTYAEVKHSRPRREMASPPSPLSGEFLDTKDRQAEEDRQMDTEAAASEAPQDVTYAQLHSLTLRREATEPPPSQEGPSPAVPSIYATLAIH

B1: 21D9.e.IgG1.3 (antibody, V domains shown)
VH: EVQLLESGGGLVQPGGSLRLSCAASGFTFSNYAMNWVRQAPGKGLEWVSVISVSGGSTYYADSVKGRFTISRDNSKNTLYLQMNSLRAEDTAVYYCAKDYYYDSGSYYDSFFDYWGQGTLVTVSS
VL: not shown
notes: Germline reversion mutant of 21D9 with all four VH reversions; light chain of 21D9; IgG1.3; also called ILT4.8.IgG1.3; ILT4.8
Consider B1, for which the dissociation constant (Kd) with hILT4-His-Avi tag [1] worked out at 0.39 nM; with hILT4-His-Avi tag [2] it was 0.33 nM; in the assay with hILT4-His-Avi tag [7], 0.58 nM. Further, the app. act. in the assay with hILT4-His-Avi tag [1] came out at 93%; with hILT4-His-Avi tag [7] it was 94%. Further, the EC50 in assay [3] was 0.039 µg/mL; with human LILRA5 [4], around 313 µg/mL; in [5] it was 0.00416 µg/mL; in [6] it was 0.0341 µg/mL. Besides, the binding result with human ILT3, with human ILT5, with human LIR8, with human LILRA1, in the assay with human LILRA2 and with human LILRA6 was “no binding (tested: 20 µg/ml)” in each case. Besides, the binding result in the assay with human LILRA3, with human ILT2 and with human LILRA4 was “no binding (tested: 20 µg/ml)” in each case.

B2: 10F10.IgG1.3 (antibody, V domains shown)
VH: QVQLVESGGGVVQPGRSLRLSCAASGFTFSSYAMHWVRQAPGKGLEWVAIISYDEYNKYYADSVKGRFTISRDNSKNTLYLQMNSLRAEDTAVYYCAREWVGIRYWGQGTLVTVSS
VL: AIQLTQSPSSLSASVGDRVTITCRASQGISSALAWFQQKPGKAPKLLIYDASSLESGVPSRFTGSGSGTDFTLTISSLQPEDFATYYCQQFNSYPITFGQGTRLEIKR
notes: Fully human antibody, IgG1.3 heavy chain constant region (L234A, L235E, G237A), kappa light chain; also called 10F10 WT; ILT4.10.IgG1.3
For B2, the half-maximal inhibitory concentration (IC50) turned out to be 3.6 µg/mL with rhILT4-Fc [8] and 1.55 µg/mL with rhILT4-Fc [12]. The equilibrium dissociation constant (Kd) with hILT4-His-Avi tag [1] was 14 nM and 15 nM; with hILT4-His-Avi tag [7], 22 nM; in the assay with hILT4-His-Avi tag [13], 19 nM and 18 nM. Moreover, the off-rate constant (koff) is 0.023 s⁻¹ and 0.02 s⁻¹ with hILT4-His-Avi tag [1]; 0.026 s⁻¹ in the assay with hILT4-His-Avi tag [7]. For the same molecule, the association rate constant (kon) with hILT4-His-Avi tag [1] is 1.6e+06 M⁻¹ s⁻¹ and 1.3e+06 M⁻¹ s⁻¹; with hILT4-His-Avi tag [7], 1.2e+06 M⁻¹ s⁻¹. Besides, the EC50 was 0.0492 µg/mL in assay [9], 0.015 µg/mL in assay [5], 0.131 µg/mL in assay [6] and 0.0279 µg/mL in assay [10]. The same molecule showed an app. act. in the assay with hILT4-His-Avi tag [7] of 100%. Further, the binding result with human ILT3, with human ILT5, in the assay with human LIR8, with human LILRA1, in the assay with human LILRA2 and in the assay with human LILRA6 was “no binding (tested: 20 µg/ml)” in each case. The binding result with human LILRA3, with human ILT2, in the assay with human LILRA5 [11] and with human LILRA4 was “no binding (tested: 20 µg/ml)” each time.
